Experimental data taken from publication PMC5268738, “A sequential multi-target Mps1 phosphorylation cascade promotes spindle checkpoint signaling” (eLife, 2017).
Each block holds one substance with its values, some of them ahead of it.

Experiments:
Mad1 CTD [1] = target: Mad1 CTD (UniProt Q9Y6D9); test: peptide-bead pull-down, Coomassie
Mad1 CTD [2] = target: Mad1 CTD (UniProt Q9Y6D9); test: ITC; details: reference: pT461 peptide; sites S459
Cdc20 Cdc20N, 1-170 = Cdc20 Cdc20N, 1-170 (UniProt Q12834); test: Ni2+ bead pull-down, anti-Mad1 blot; details: reference: Mad1E–Mad2 wild type; sites T716
scMad1 CTD [3] = target: scMad1 CTD (UniProt P40957); test: peptide-bead pull-down, Coomassie
scMad1 CTD [4] = target: scMad1 CTD (UniProt P40957); test: ITC; details: reference: pT455 peptide; sites T453

- binding against the reference (Mad1 CTD [1]; reference: pS459-pT461 peptide, sites T464): weaker
Substance: Bub1 455-477 (from UniProt O43683) pS459-pT461-pT464 peptide

- binding against the reference (Mad1 CTD [1]; reference: pT461 peptide, sites S459): stronger
- binding against the reference (Mad1 CTD [2]): stronger
Substance: Bub1 455-477 (from UniProt O43683) pS459-pT461 peptide

- binding against the reference (Cdc20 Cdc20N, 1-170): weaker
Substance: Mad1 Mad1E (MIM + CTD) (from UniProt Q9Y6D9) Mad1E T716A

- binding against the reference (scMad1 CTD [3]; reference: pT453 peptide, sites T455): stronger
- binding against the reference (scMad1 CTD [3]; reference: pT455 peptide, sites T453): same
- binding against the reference (scMad1 CTD [4]): same
Substance: scBub1 449-473 (from UniProt P41695) pT453-pT455 peptide
